For 36 sequences, protein stability index results are on record in the supplement of paper PMC9732359.

± gives the uncertainty stated by the source.

The data set can be described thus: protein stability index of a GFP-peptide fusion (yeast GPS) (PSI 1-4); higher = more stable; sorted into four equal gates, so the index is relative within each strain. A digest of the protocol: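 Tiled 17-residue yeast protein peptides were fused downstream of GFP in a plasmid that also expresses Cherry, and the pooled library was carried in yeast. Mid-log cultures in leucine-free medium were sorted into four equal gates by GFP/Cherry fluorescence ratio, and plasmids from each gate were PCR-amplified and Illumina-sequenced, with reads assigned to strains by barcodes. The protein stability index for each peptide was each gate's read frequency times its gate number, summed.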

On to TLFCCLLRSRLATRRVL [RPO21], for which the protein stability index (doa10∆) was 1.31 ± 0.068, the protein stability index (pdr5∆) turned out to be 1.22 ± 0.06, the protein stability index (san1∆) is 1.15 ± 0.15 and the protein stability index (ubr1∆) came out at 1.2 ± 0.05.
In the same order, the values of TNSTYNPASATDNMSGR [YJL039C/NUP192] are 2.71 ± 0.058, 2.73 ± 0.063, 2.47 ± 0.054 and 2.56 ± 0.052.
In the same order, the values of RFMKGRRSKQLINLAKT [RPC82] are 2.56 ± 0.1, 2.78 ± 0.11, 2.72 ± 0.074 and 2.62 ± 0.12.
In the case of RMLSFEDISKATHLPKD [RPN9], the protein stability index runs as follows: (doa10∆) 2.95 ± 0.091; (pdr5∆) 3.08 ± 0.08; (san1∆) 3.15 ± 0.096; (ubr1∆) 3.02 ± 0.055.
In the same order, the values of NLDAAAAGTSQARTATL [RPC10] are 2.65 ± 0.17, 3.15 ± 0.15, 2.73 ± 0.1 and 2.86 ± 0.096.
In the same order, the values of DPSRELNVIIDQLAVSP [YCS4] are 2.79 ± 0.055, 3.04 ± 0.062, 2.72 ± 0.053 and 2.67 ± 0.05.
In the same order, the values of YYYYHPMNAPTPAMIPY [DSN1] are 2.14 ± 0.047, 2.39 ± 0.05, 2.49 ± 0.066 and 2.46 ± 0.039.
Turning to SKMGAPWCVKPEYLAMY [ITC1], the protein stability index stood at 2.92 ± 0.057 (doa10∆), 3.23 ± 0.048 (pdr5∆), 3.1 ± 0.043 (san1∆) and 3.11 ± 0.058 (ubr1∆).
With NALEHKYFTESDIPVSE [SSN3], the protein stability index by setting is: (doa10∆) 2.3 ± 0.081; (pdr5∆) 2.75 ± 0.11; (san1∆) 2.76 ± 0.082; (ubr1∆) 2.94 ± 0.096.
In the same order, the values of YKDVSDLIRSESMLHLS [IRR1] are 2 ± 0.071, 2.29 ± 0.054, 2.11 ± 0.093 and 2.01 ± 0.043.
Consider PTEMEPDLDTECFISMQ [SWI1], for which the protein stability index (doa10∆) amounted to 3.27 ± 0.055, the protein stability index (pdr5∆) stood at 3.39 ± 0.052, the protein stability index (san1∆) was found to be 3.23 ± 0.047 and the protein stability index (ubr1∆) is 3.26 ± 0.058.
In the same order, the values of SENQRQIFCVFSGKGVH [GRR1] are 2.94 ± 0.073, 2.5 ± 0.065, 2.62 ± 0.053 and 2.76 ± 0.046.
In the same order, the values of IFTDAGRVYRPLFIVED [RPB2] are 2.16 ± 0.066, 2.51 ± 0.08, 2.06 ± 0.074 and 1.89 ± 0.033.
For IIDRGRNVLSASLDGTI [RPN14], the protein stability index turned out to be 3.1 ± 0.093 (doa10∆), 2.52 ± 0.065 (pdr5∆), 2.97 ± 0.055 (san1∆) and 2.77 ± 0.044 (ubr1∆).
In the same order, the values of NDVTRRTVKNILVSVLP [CSL4] are 2.89 ± 0.12, 3.12 ± 0.1, 3.11 ± 0.08 and 3.09 ± 0.11.
In the same order, the values of LHYIPKYNRYEKRHKNV [RPS11A] are 2.06 ± 0.063, 1.74 ± 0.054, 1.78 ± 0.089 and 2.26 ± 0.05.
In the same order, the values of PSTTLFNFGGKSDTVTS [YOR098C/NUP1] are 2.51 ± 0.065, 2.32 ± 0.075, 2.4 ± 0.073 and 2.92 ± 0.059.
Turning to FFNGKALNNAIPGGPKF [PRP8], the protein stability index by setting is: (doa10∆) 3.29 ± 0.13; (pdr5∆) 3.02 ± 0.16; (san1∆) 2.87 ± 0.17; (ubr1∆) 2.94 ± 0.1.
In the same order, the values of LSAENIEERLVAIAEQD [SCL1] are 3.22 ± 0.083, 3.18 ± 0.089, 3.33 ± 0.061 and 3.32 ± 0.066.
NTLLQQQNYSKVLLPSI [SWI1]: the protein stability index is 2.07 ± 0.077 (doa10∆), 2.9 ± 0.11 (pdr5∆), 2.79 ± 0.076 (san1∆) and 3.09 ± 0.095 (ubr1∆).
With NQLEDFILELEHKTPEL [YIL149C/MLP2], the protein stability index runs as follows: (doa10∆) 2.74 ± 0.14; (pdr5∆) 3.28 ± 0.16; (san1∆) 3.07 ± 0.14; (ubr1∆) 3.35 ± 0.12.
In the same order, the values of GTNNARLAQLLRQLASY [RPN1] are 3.17 ± 0.092, 3.09 ± 0.083, 3.21 ± 0.097 and 3.14 ± 0.096.
Take TFGTKHAADSQNNKPSF [YLR335W/NUP2]: the protein stability index by setting is: (doa10∆) 3.16 ± 0.22; (san1∆) 3.18 ± 0.17; (ubr1∆) 3.05 ± 0.2.
Take IQPTAKVVYIQRRSWRQ [DIS3]: the protein stability index was 1.52 ± 0.1 (doa10∆), 1.48 ± 0.072 (pdr5∆), 1.31 ± 0.13 (san1∆) and 1.16 ± 0.12 (ubr1∆).
In the same order, the values of KRSGHRTAPKSDNVYLK [RPL18A] are 2.85 ± 0.12, 2.68 ± 0.095, 2.69 ± 0.12 and 2.61 ± 0.077.
In the same order, the values of VVPNEKADDDSVTIISA [ASC1] are 2.98 ± 0.072, 2.9 ± 0.082, 3.05 ± 0.049 and 2.91 ± 0.076.
In the same order, the values of VISIVGGHSLEEISFSL [PRP28] are 2.82 ± 0.13, 2.73 ± 0.13, 3.19 ± 0.091 and 3.18 ± 0.13.
Turning to CGDSIICNTLNIAKDLK [SMC1], the protein stability index is, setting by setting: (doa10∆) 1.78 ± 0.079; (pdr5∆) 1.66 ± 0.067; (san1∆) 1.42 ± 0.12; (ubr1∆) 2.12 ± 0.075.
For the sequence DNNTASNMLGSNEDVMM [RPB3], the protein stability index reads like this: (doa10∆) 2.04 ± 0.25; (pdr5∆) 2.43 ± 0.17; (san1∆) 2.31 ± 0.25.
Regarding FTKNEEKLLKELENNEF [ITC1], the protein stability index came to 2.26 ± 0.083 (doa10∆), 2.28 ± 0.074 (pdr5∆), 2.27 ± 0.083 (san1∆) and 2.24 ± 0.27 (ubr1∆).
In the same order, the values of ELQEKNVELLNCIRILA [YIL149C/MLP2] are 2.19 ± 0.054, 1.95 ± 0.065, 1.73 ± 0.085 and 1.68 ± 0.039.
On to RLIDSMKQYSYLMDSKN [RRI1], for which the protein stability index runs as follows: (doa10∆) 2.62 ± 0.21; (pdr5∆) 2.41 ± 0.14; (ubr1∆) 2.87 ± 0.18.
On to LEQIQVQLKDANSQIQA [YIL149C/MLP2], for which the protein stability index is, setting by setting: (doa10∆) 2.55 ± 0.12; (pdr5∆) 2.41 ± 0.27; (san1∆) 2.45 ± 0.21; (ubr1∆) 2.43 ± 0.15.
In the same order, the values of LKDFNTERVVEIGPSPT [FAS2] are 2.888 ± 0.024, 2.901 ± 0.022, 2.861 ± 0.017 and 2.716 ± 0.014.
In the same order, the values of VRAVNTGMEPGKTSFFQ [RPP0] are 2.58 ± 0.16, 2.78 ± 0.15, 2.8 ± 0.18 and 2.42 ± 0.25.
In the same order, the values of RRLDALVEKVYARFKND [ITC1] are 3.29 ± 0.16, 1.93 ± 0.083, 2.69 ± 0.078 and 2.29 ± 0.097.
